Laboratory results from publication PMC6298778, “A secretory pathway kinase regulates sarcoplasmic reticulum Ca^2+ homeostasis and protects against heart failure” (eLife, 2018).
Values belong to the molecule of their own block, whether it stands above or below them.

Assays:
[1] = molecular target: calsequestrin 2 (CSQ2, CASQ2) 19-399 (UniProt O14958); assay: Ca2+-dependent turbidity, absorbance at 350 nm; details: reference: CSQ2 treated in tandem without Fam20C; sites S385
[2] = molecular target: the molecule itself; assay: turbidity assay; 4.5 uM phosphorylated or unphosphorylated His-CASQ2, 10 mM Tris-HCl pH 7.0, 10% glycerol, CaCl2 at the concentrations indicated; 30 min at room temperature; absorbance at 350 nm

- binding against the reference [1]: stronger
Molecule: calsequestrin 2 (CSQ2, CASQ2) 19-399 (from UniProt O14958) CSQ2 phosphorylated in vitro by Fam20C

B1: calsequestrin 2 (CSQ2), phosphorylated in vitro by Fam20C, His-tagged (natural protein, human, UniProt O14958 19-399, looked up)
chain: AEEGLNFPTYDGKDRVVSLSEKNFKQVLKKYDLLCLYYHEPVSSDKVTQKQFQLKEIVLELVAQVLEHKAIGFVMVDAKKEAKLAKKLGFDEEGSLYILKGDRTIEFDGEFAADVLVEFLLDLIEDPVEIISSKLEVQAFERIEDYIKLIGFFKSEDSEYYKAFEEAAEHFQPYIKFFATFDKGVAKKLSLKMNEVDFYEPFMDEPIAIPNKPYTEEELVEFVKEHQRPTLRRLRPEEMFETWEDDLNGIHIVAFAEKSDPDGYEFLEILKQVARDNTDNPDLSILWIDPDDFPLLVAYWEKTFKIDLFRPQIGVVNVTDADSVWMEIPDDDDLPTAEELEDWIEDVLSGKINTEDDDEDDDDDDNSDEEDNDDSDDDDDE
modifications: phosphoserine at 385 (phosphorylated in vitro by Fam20C; saturated phosphorylation >95%)
notes: also called phosphorylated CSQ2; phosphorylated His-CASQ2; source: E. coli BL21 (DE3)-RILP, purified (Ni-NTA), phosphorylated in vitro by Fam20C, then size exclusion chromatography; not shown: His6, C-terminal, kept
- binding result [2]: binds

B2: calsequestrin 2 (CSQ2), unphosphorylated, His-tagged (natural protein, human, UniProt O14958 19-399, looked up)
chain: B1 chain
notes: Control sample of the turbidity assay: same treatment as the phosphorylated protein but without Fam20C; also called CASQ2; His-CASQ2; source: E. coli BL21 (DE3)-RILP, purified (Ni-NTA, size exclusion chromatography); treated in tandem without Fam20C; not shown: His6, C-terminal, kept
- binding result [2]: binds
